This note sets out measurements from patent US20110070246A1 (F HOFFMANN LAROCHE, published 2011).

For assay [1], the target named is T1, Soluble extracellular domain (ECD) of human CDCP1 (human, UniProt Q9H5V8 30-663).
T1 construct: also called CDCP1-ECD; hCDCP1-ECD
T1 sequence: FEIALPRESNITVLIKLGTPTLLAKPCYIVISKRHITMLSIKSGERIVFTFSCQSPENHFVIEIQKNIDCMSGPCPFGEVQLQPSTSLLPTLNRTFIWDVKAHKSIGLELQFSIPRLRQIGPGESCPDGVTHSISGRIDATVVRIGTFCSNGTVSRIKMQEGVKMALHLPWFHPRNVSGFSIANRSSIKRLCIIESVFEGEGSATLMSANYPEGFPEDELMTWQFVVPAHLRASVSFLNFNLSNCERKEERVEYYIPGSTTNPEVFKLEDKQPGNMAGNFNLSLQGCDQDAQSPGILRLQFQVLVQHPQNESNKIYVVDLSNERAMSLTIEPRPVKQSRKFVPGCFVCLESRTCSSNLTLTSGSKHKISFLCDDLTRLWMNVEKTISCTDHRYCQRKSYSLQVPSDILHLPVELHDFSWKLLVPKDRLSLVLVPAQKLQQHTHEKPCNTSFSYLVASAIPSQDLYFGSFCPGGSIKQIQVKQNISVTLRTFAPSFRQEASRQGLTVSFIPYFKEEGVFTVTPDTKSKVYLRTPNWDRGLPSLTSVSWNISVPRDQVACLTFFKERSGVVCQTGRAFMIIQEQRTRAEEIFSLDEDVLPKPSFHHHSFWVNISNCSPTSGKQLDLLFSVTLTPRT
Put plainly: Biacore SPR, immobilized hCDCP1-ECD.

In assay [2] the target is Short1 (huCDCP1_SH1_ECD aa1-216)_SBP (human) (UniProt Q9H5V8). Put plainly: ELISA, SBP-CDCP1-Short1 captured on a streptavidin plate, antibody 0.1 ug in 50 ul, goat anti-mouse IgG-HRP, absorbance 370 nm/492 nm; the same antibody on Medium coating: 0,0420. (In general: In an ELISA, binding on a coated surface is turned into a signal by an enzyme label.)
In assay [3] the target is Short5 (hu CDCP1_SH5_ECD (aa 1-361)_SBP) (human) (UniProt Q9H5V8). Put plainly: ELISA, SBP-CDCP1-Short5 captured on a streptavidin plate, antibody 0.1 ug in 50 ul, goat anti-mouse IgG-HRP, absorbance 370 nm/492 nm; the same antibody on Medium coating: 0,0420.
Assay [4] has as its target Short1 (huCDCP1_SH1_ECD aa1-216)_SBP (human) (UniProt Q9H5V8). Put plainly: ELISA, SBP-CDCP1-Short1 captured on a streptavidin plate, antibody 0.1 ug in 50 ul, goat anti-mouse IgG-HRP, absorbance 370 nm/492 nm; the same antibody on Medium coating: 0,2330.
The target of assay [5] is Short5 (hu CDCP1_SH5_ECD (aa 1-361)_SBP) (human) (UniProt Q9H5V8). Briefly: ELISA, SBP-CDCP1-Short5 captured on a streptavidin plate, antibody 0.1 ug in 50 ul, goat anti-mouse IgG-HRP, absorbance 370 nm/492 nm; the same antibody on Medium coating: 0,2330.

B1: CUB4 antibody (Deposition No. DSM ACC2551), murine (antibody, V domains shown)
VH: EVQLVESGGDLVKPGGSLKLSCAASGFTFNSYGMSWVRQTPDKRLEWVATISSGGSYTYYPDSVKGRFTISRDNAKNTLYLQMSSLKSEDTAMYYCARHPDYDGVWFAYWGQGTLVTVSA
VL: QIVLTQSPAIMSASPGEKVTMTCSVSSSVFYVHWYQQKSGTSPKRWIYDTSKLASGVPARFSGSGSGTSYSLTISSMEAEDAATYYCQQWNSNPPTFGGGTKLEIK
notes: Deposited murine monoclonal antibody; also called Mab CUB4; murine CUB4
The Kd is the equilibrium constant for the complex coming apart. Read a low Kd as tighter binding. The term koff denotes a measure of how fast the partners let go of each other. A high value points to a short-lived complex. As a reminder, the kon is a measure of how fast the partners come together. In assay [1], B1 yielded an equilibrium dissociation constant (Kd) of 0.52 nM, a dissociation rate constant (koff) of 0.00052 s⁻¹ and a kon of 990000 M⁻¹ s⁻¹. This molecule came in with an Absorption in assay [2] of 0.787. Further, the Absorption in assay [3] came out at 1.04.

B2: Mab CDCP1-015 (antibody, V domains shown)
VH: QVHLKQSGPGLVQPSQSLSITCTVSGFSLTNFGLHWVRQSPGKGLEWLGVIWSGGVTDYNAAFISRLSISKDNSKSQVFFKMNSLQPNDTAIYYCARNYDHDYSMDYWGQGISVSVSS
VL: DVVLTQTPLSLPVIIGDQASISCKSTKSLLNSAGFTYLGWYLQKPGQSPQLLIYLVSNRFSGVPDRFSGSGSGTDFTLKISRVEAEDLGVYFCFQSSYLPLTFGSGTKLEIK
notes: also called CDCP1-0015; Murine CDCP1-015
In the case of B2, in assay [1], the affinity, expressed as Kd, was 0.47 nM; the koff turned out to be 0.00022 s⁻¹; the kon was 460000 M⁻¹ s⁻¹. In assay [4], this molecule yielded an Absorption of 1.3. Moreover, the Absorption in assay [5] worked out at 1.49.
